The supplement of paper PMC9732359
± gives the uncertainty stated by the source.

Test: protein stability index of a GFP-peptide fusion (yeast GPS) (PSI 1-4); higher = more stable; sorted into four equal gates, so the index is relative within each strain
In short: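 Plasmids in a pooled yeast library fused tiled 17-residue yeast protein peptides downstream of GFP and also expressed Cherry. Mid-log cultures grown without leucine were sorted into four equal gates by GFP/Cherry fluorescence ratio. Each gate's plasmids were PCR-amplified and Illumina-sequenced, and reads were matched to strains by barcodes. The protein stability index is derived by multiplying each gate's read frequency by its gate number and summing the results.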

In the case of NKTLTFETETEVTFKNA [FAS1], the protein stability index (doa10∆) is reported as 3.15 ± 0.078, the protein stability index (pdr5∆) is reported as 3.23 ± 0.093 and the protein stability index (san1∆) is reported as 3.28 ± 0.084. It also gave a protein stability index (ubr1∆) of 3.35 ± 0.049.
With RPEQLSNIIHDESDTIS [SNF6] the protein stability index (doa10∆) was 1.82 ± 0.09, the protein stability index (pdr5∆) was 2.58 ± 0.063 and the protein stability index (san1∆) was 2.02 ± 0.11. It also gave a protein stability index (ubr1∆) of 2.32 ± 0.061.
With AAVIMRCKIYFFYLRIS [PCI8] the protein stability index (doa10∆) was 1.33 ± 0.067, the protein stability index (pdr5∆) was 1.35 ± 0.06 and the protein stability index (san1∆) was 1.15 ± 0.11. It also gave a protein stability index (ubr1∆) of 1.09 ± 0.088.
With VEEVIKLVRDSFTSATE [PRE7] the protein stability index (doa10∆) was 3.06 ± 0.078, the protein stability index (pdr5∆) was 3.33 ± 0.066 and the protein stability index (san1∆) was 3.18 ± 0.052. For the same sequence, the protein stability index (ubr1∆) was 3 ± 0.061.
With PLQVARCTKIIKGNGES [RPT1] the protein stability index (doa10∆) was 2.96 ± 0.16, the protein stability index (pdr5∆) was 2.96 ± 0.081 and the protein stability index (san1∆) was 2.72 ± 0.09. It also gave a protein stability index (ubr1∆) of 2.01 ± 0.14.
NKEGTLEQREQNENLPS [SSN2] showed a protein stability index (doa10∆) of 3.02 ± 0.11, a protein stability index (pdr5∆) of 3.06 ± 0.074 and a protein stability index (san1∆) of 3.09 ± 0.057. For the same sequence, the protein stability index (ubr1∆) was 3.05 ± 0.057.
EDSMIMNQSSIDRGLFR [RPB2] showed a protein stability index (doa10∆) of 2.55 ± 0.08, a protein stability index (pdr5∆) of 2.61 ± 0.093 and a protein stability index (san1∆) of 2.62 ± 0.098. The protein stability index (ubr1∆) was 2.91 ± 0.065.
For EYLFKPQLISDKFSPED [ARP7], the protein stability index (doa10∆) was 2.38 ± 0.053, the protein stability index (pdr5∆) was 2.46 ± 0.042 and the protein stability index (san1∆) was 2.32 ± 0.056. The protein stability index (ubr1∆) was 2.17 ± 0.041.
DVLKENNDADKGRSYAY [RIP1] gave a protein stability index (doa10∆) of 3.48 ± 0.13, a protein stability index (pdr5∆) of 3.5 ± 0.15 and a protein stability index (san1∆) of 3.25 ± 0.092. The protein stability index (ubr1∆) was 3.03 ± 0.26.
Sequence TKLIISGQLNFEIDGDV [PCI8] has a protein stability index (doa10∆) of 2.57 ± 0.099, a protein stability index (pdr5∆) of 2.16 ± 0.093 and a protein stability index (san1∆) of 1.87 ± 0.11. It also gave a protein stability index (ubr1∆) of 2.23 ± 0.055.
For QIEKKEIKKMIITNINA [YCG1], the protein stability index (doa10∆) was 2.64 ± 0.11, the protein stability index (pdr5∆) was 2.75 ± 0.11 and the protein stability index (san1∆) was 2.7 ± 0.13. For the same sequence, the protein stability index (ubr1∆) was 2.47 ± 0.15.
Work on LLSKKHGQLKLSIQYMI [RPN5] yielded a protein stability index (doa10∆) of 1.43 ± 0.046, a protein stability index (pdr5∆) of 1.96 ± 0.053 and a protein stability index (san1∆) of 1.36 ± 0.094. For the same sequence, the protein stability index (ubr1∆) was 1.65 ± 0.053.
With GATKIVREHYLRSDIPC [DIS3] the protein stability index (doa10∆) was 2.67 ± 0.069, the protein stability index (pdr5∆) was 2.63 ± 0.067 and the protein stability index (san1∆) was 2.1 ± 0.093. For the same sequence, the protein stability index (ubr1∆) was 2.43 ± 0.054.
With WSSEFAKWAPTLRTISF [SNF2] the protein stability index (doa10∆) was 2.36 ± 0.057, the protein stability index (pdr5∆) was 2.41 ± 0.043 and the protein stability index (san1∆) was 2.78 ± 0.063. It also gave a protein stability index (ubr1∆) of 2.47 ± 0.056.
WSEISNELPDIEALYDD [RPN2] gave a protein stability index (doa10∆) of 3.49 ± 0.29, a protein stability index (pdr5∆) of 3.57 ± 0.25 and a protein stability index (san1∆) of 3.29 ± 0.16. The protein stability index (ubr1∆) was 3.12 ± 0.11.
Sequence YQKEYETAERNIIQAKR [RPL7A] has a protein stability index (doa10∆) of 2.81 ± 0.25, a protein stability index (pdr5∆) of 2.75 ± 0.14 and a protein stability index (san1∆) of 1.94 ± 0.16.
In the case of VITALKEPPRDRKKDKN [RPL12A], the protein stability index (doa10∆) is reported as 2.48 ± 0.08, the protein stability index (pdr5∆) is reported as 2.61 ± 0.12 and the protein stability index (san1∆) is reported as 2.37 ± 0.1. The protein stability index (ubr1∆) was 1.85 ± 0.063.
Sequence DAVLKIFSFHQDSIFQR [SRB8] has a protein stability index (doa10∆) of 3.12 ± 0.11, a protein stability index (pdr5∆) of 2.79 ± 0.12 and a protein stability index (san1∆) of 3.04 ± 0.077. For the same sequence, the protein stability index (ubr1∆) was 2.77 ± 0.057.
KNPHDIIEGINAGEIEI [RPL12A] showed a protein stability index (doa10∆) of 2.66 ± 0.075, a protein stability index (pdr5∆) of 2.44 ± 0.075 and a protein stability index (san1∆) of 2.22 ± 0.096. For the same sequence, the protein stability index (ubr1∆) was 2.34 ± 0.06.
In the case of FKGVIVKIVDKDGIRQV [PRE1], the protein stability index (doa10∆) is reported as 2.26 ± 0.18, the protein stability index (pdr5∆) is reported as 3.11 ± 0.19 and the protein stability index (san1∆) is reported as 3.16 ± 0.23. The protein stability index (ubr1∆) was 3.13 ± 0.092.
Work on SCTLLERGHPKDNARIY [POP1] yielded a protein stability index (doa10∆) of 1.87 ± 0.056, a protein stability index (pdr5∆) of 2.15 ± 0.064 and a protein stability index (san1∆) of 2.76 ± 0.055. It also gave a protein stability index (ubr1∆) of 2.99 ± 0.063.
In the case of NATANATANATANATAE [SNF11], the protein stability index (doa10∆) is reported as 3.15 ± 0.04, the protein stability index (pdr5∆) is reported as 3.33 ± 0.042 and the protein stability index (san1∆) is reported as 3.18 ± 0.042. For the same sequence, the protein stability index (ubr1∆) was 3.325 ± 0.03.
MALNKVLITDHIEKLEN [CDC53] gave a protein stability index (doa10∆) of 2.52 ± 0.053, a protein stability index (pdr5∆) of 2.14 ± 0.047 and a protein stability index (san1∆) of 2.15 ± 0.059. For the same sequence, the protein stability index (ubr1∆) was 2.28 ± 0.052.
DQSNVQYYLSVLNQQLP [BRR2] gave a protein stability index (doa10∆) of 2.96 ± 0.082, a protein stability index (pdr5∆) of 3.03 ± 0.072 and a protein stability index (san1∆) of 3.02 ± 0.06. The protein stability index (ubr1∆) was 3.03 ± 0.06.
REQHIDTICQSIQEQIQ [SNF5] showed a protein stability index (doa10∆) of 3.12 ± 0.068, a protein stability index (pdr5∆) of 3.25 ± 0.11 and a protein stability index (san1∆) of 3.25 ± 0.053. It also gave a protein stability index (ubr1∆) of 3.3 ± 0.068.
EPENNTVIEGVKEESQP [SWI3] gave a protein stability index (doa10∆) of 3.21 ± 0.095, a protein stability index (pdr5∆) of 3.13 ± 0.092 and a protein stability index (san1∆) of 3.08 ± 0.059. It also gave a protein stability index (ubr1∆) of 2.99 ± 0.081.
In the case of FNSFRRFKSQFLYVLIP [QCR8], the protein stability index (doa10∆) is reported as 1.63 ± 0.1, the protein stability index (pdr5∆) is reported as 1.69 ± 0.069 and the protein stability index (san1∆) is reported as 1.56 ± 0.12. It also gave a protein stability index (ubr1∆) of 1.4 ± 0.054.
With RTFRLNECVCTPYNADF [RPO31] the protein stability index (doa10∆) was 2.25 ± 0.045, the protein stability index (pdr5∆) was 2.4 ± 0.049 and the protein stability index (san1∆) was 2.77 ± 0.054. The protein stability index (ubr1∆) was 2.28 ± 0.065.
Work on DLLPNSFAKLVPCEGKD [SMC2] yielded a protein stability index (doa10∆) of 2.2 ± 0.04, a protein stability index (pdr5∆) of 2.73 ± 0.038 and a protein stability index (san1∆) of 2.46 ± 0.053. The protein stability index (ubr1∆) was 2.45 ± 0.039.
In the case of IKGPEFKFSGTVSSDVF [YLR335W/NUP2], the protein stability index (pdr5∆) is reported as 3.17 ± 0.18.
With RVLTQDGRVYIGQLMAF [SMB1] the protein stability index (doa10∆) was 3.48 ± 0.098, the protein stability index (pdr5∆) was 3.26 ± 0.083 and the protein stability index (san1∆) was 2.63 ± 0.09. It also gave a protein stability index (ubr1∆) of 3.05 ± 0.041.
With RLNNVFVIGEQGKPYIS [RPS4A] the protein stability index (doa10∆) was 2.66 ± 0.11, the protein stability index (pdr5∆) was 3.02 ± 0.094 and the protein stability index (san1∆) was 3.1 ± 0.11. The protein stability index (ubr1∆) was 2.12 ± 0.057.
Sequence TRVEGSGGGDSEVQRTM [RPT6] has a protein stability index (doa10∆) of 2.73 ± 0.098, a protein stability index (pdr5∆) of 2.65 ± 0.13 and a protein stability index (san1∆) of 2.98 ± 0.087. It also gave a protein stability index (ubr1∆) of 3.19 ± 0.051.
In the case of SAYEASMVYSNVGELIE [RRP4], the protein stability index (doa10∆) is reported as 1.64 ± 0.057, the protein stability index (pdr5∆) is reported as 2.22 ± 0.054 and the protein stability index (san1∆) is reported as 2.32 ± 0.058. For the same sequence, the protein stability index (ubr1∆) was 1.85 ± 0.048.
In the case of YFLDVKCPGCLNITTVF [RPS27A], the protein stability index (doa10∆) is reported as 2.64 ± 0.054, the protein stability index (pdr5∆) is reported as 2.6 ± 0.055 and the protein stability index (san1∆) is reported as 2.19 ± 0.1. It also gave a protein stability index (ubr1∆) of 2.85 ± 0.054.
With EGQLKPGDGSSYINVTF [RPC25] the protein stability index (doa10∆) was 3.44 ± 0.15, the protein stability index (pdr5∆) was 3.12 ± 0.15 and the protein stability index (san1∆) was 2.77 ± 0.19. It also gave a protein stability index (ubr1∆) of 3.02 ± 0.11.
Sequence LLSIKLPGKVNTKEEFA [SNF5] has a protein stability index (doa10∆) of 2.15 ± 0.17, a protein stability index (pdr5∆) of 1.82 ± 0.083 and a protein stability index (san1∆) of 1.78 ± 0.16. The protein stability index (ubr1∆) was 2.51 ± 0.23.
Sequence TDTSTTATAATNGNNAG [MED6] has a protein stability index (doa10∆) of 3.2 ± 0.29, a protein stability index (pdr5∆) of 3.06 ± 0.13 and a protein stability index (san1∆) of 3.39 ± 0.091. The protein stability index (ubr1∆) was 3.29 ± 0.096.
NDPAREKFSSFIESIVV [SNF12] showed a protein stability index (doa10∆) of 2.78 ± 0.056, a protein stability index (pdr5∆) of 2.8 ± 0.058 and a protein stability index (san1∆) of 2.27 ± 0.071. It also gave a protein stability index (ubr1∆) of 2.77 ± 0.04.
Work on GAQFSRSYDLTRHQNTI [RPN4] yielded a protein stability index (doa10∆) of 1.16 ± 0.12, a protein stability index (pdr5∆) of 1.67 ± 0.11 and a protein stability index (san1∆) of 1.85 ± 0.18. The protein stability index (ubr1∆) was 2.53 ± 0.099.
